Laboratory results from patent US6444644B1, “Anticoagulant peptide fragments derived from apolipoprotein B-100” (University College London, priority 1996, dated 2002).

Legend:
thromboplastin [1] = biological target: T1, thromboplastin (Homo sapiens, UniProt P13726); experiment: Time-course inhibition of thromboplastin procoagulant activity (one-stage prothrombin time and two-stage amidolytic assay); assay type: biochemical; settings: 500 nM, 37° C.; for effect on thromboplastin (in words): up to 120 min
T1 construct: purchased Gamidor Ltd. (Oxfordshire, U.K.)
Procedure: The one stage prothrombin time assay was carried out by the addition of 100 μl of the sample to 100 μl of 25 mM CaCl2 solution and incubation prior to addition of 100 μl of control plasma. The clotting time was measured on the coagulometer. The two-stage amidolytic assay was carried according to published procedures. In all cases the thromboplastin activity was calculated from a standard curve prepared previously and the percentage inhibition was calculated as 100×[…].
The apolipoprotein B-100 control peptide (fragment 3358-3372) containing the sequence TRLTRKRGLKLATAL was reconstituted in distilled water to 1 mM. The freeze-dried samples were reconstituted in distilled water to a concentration of 1 mM. Two 200 μl samples of thromboplastin (10 U/ml) were incubated with 500 nM KRAD-14 or apolipoprotein B-100 control peptide at 37° C. for 45 min. Another set of 200 μl samples of thromboplastin (10 U/ml) were incubated with either 500 nM KRAD-98 or the chloramphenicol acetyltransferase control protein. […] Following the incubation the thromboplastin activity in all the samples was measured by means of the one-stage prothrombin time assay and the two-stage amidolytic assay and the percentage inhibition calculated against the control containing distilled water.
The above experiments were repeated using 1 ml samples containing recombinant thromboplastin (10 U/ml) mixed with either 500 nM KRAD-14, 500 nM KRAD-98 or 500 nM apolipoprotein B-100, reconstituted as described before. The concentrations used are equivalent to that of apolipoprotein B-100 in normal plasma. 100 μl of the each sample was removed immediately and assayed for thromboplastin activity, by means of the one-stage prothrombin time assay. The rest of the samples were incubated at 37° C. and further 100 μl samples were removed at intervals up to 120 min and measured as before. The percentage inhibition was calculated against a control sample of thromboplastin.
Three 1 ml samples containing recombinant thromboplastin (10 U/ml) were mixed with 500 nM KRAD-14 (solid square), 500 nM KRAD-98 (open square) or 500 nM apolipoprotein […] (triangle), reconstituted as described before. The concentrations used are equivalent to that of apolipoprotein B-100 in normal plasma. 100 μl of the each sample was removed immediately and assayed for thromboplastin activity, by means of the one-stage prothrombin time assay. The rest of the samples were incubated at 37° C. and further 100 μl samples were removed at intervals up to 120 min and measured as before. The thromboplastin activity was calculated from a standard curve prepared previously and the percentage inhibition was calculated as 100×[…]. The curves are typical of data from four sets of experiments.

[2] = biological target: T2, thromboplastin, reconstituted in phosphatidylcholine (Homo sapiens, UniProt P13726); experiment: Inhibition of delipidated thromboplastin reconstituted in phosphatidylcholine; assay type: biochemical; settings: 500 nM sample, 37° C., 30 min; for Procoagulant Activity: distilled water control 4.70 U/ml
T2 construct: purchased Gamidor Ltd. (Oxfordshire, U.K.)
Procedure: In other experiments, recombinant thromboplastin (1 mg/ml) was delipidated with chloroform/methanol as described previously, to remove phosphatidylserine and other lipids and reconstituted with phosphatidylcholine (1 mg/ml) to differentiate between the effects of the prepared samples on the protein moiety of thromboplastin and any effects on the thromboplastin-associated phosphatidylserine. […] The percentage inhibition was calculated against the control sample.
Recombinant thromboplastin was delipidated to remove phosphatidylserine and other lipids and reconstituted at 1 mg/ml with phosphatidylcholine (1 mg/ml). […] The % Inhibition was calculated against the control. The data were obtained from 3 separate experiments.

thromboplastin [3] = biological target: T1, thromboplastin; experiment: Effect of thromboplastin peptide (58-66) on thromboplastin activity (one-stage prothrombin time assay); assay type: biochemical; settings: for effect on the procoagulant activity of thromboplastin (in words) / Procoagulant Activity of thromboplastin: peptide 1 μM, thromboplastin 100 nM; for Procoagulant Activity of thromboplastin: 5 min, 37° C., distilled water 6.70 U/ml
Procedure: The control peptide ([…]) was reconstituted to 1 mM in distilled water. The control peptide was similar but not identical to the thromboplastin (58-66), in size, charge and amino acid composition but with a different sequence. In order to assess the effect of the thromboplastin peptide (58-66) on the activity of thromboplastin, samples of recombinant thromboplastin (100 nM) were incubated for 5 min, with the isolated thromboplastin-peptide ([…]), control peptide (1 μM) or distilled water at 37° C. prior to assaying using the one-stage prothrombin time assay. The activity was calculated from a thromboplastin standard curve.
Three aliquots of thromboplastin (100 nM) were incubated for 5 min, with the isolated thromboplastin peptide (1 μM), control peptide (1 μM) or distilled water at 37° C. prior to assaying using the one-stage prothrombin time assay. The activity was calculated from a thromboplastin standard curve. The data were obtained from 3 separate experiments.

[4] = biological target: T3, interaction of thromboplastin with apo B-100 (Homo sapiens, UniProt P13726); experiment: Influence of peptide 58-66 on the inhibition of thromboplastin by apo B-100; assay type: biochemical; settings: peptide 1 μM, thromboplastin 100 nM, apo B-100 250 nM, 37° C., up to 180 min
T3 construct: purchased Gamidor Ltd. (Oxfordshire, U.K.) for thromboplastin; apoB-100 isolated and reconstituted in house
Procedure: (250 nM final concentration) in the presence and absence of the isolated thromboplastin peptide (1 μM) or control peptide (1 μM), at 37° C. Aliquots (100 μl) were removed at the start and at various intervals up to 180 min and assayed by means of the one-stage prothrombin time assay. The residual activity of thromboplastin measured in the samples was compared to the initial activity, at time zero, and percentage inhibition calculated.
Samples of thromboplastin (100 nM) were incubated with reconstituted apo B-100 (250 nM final concentration) in the presence (▪) and absence (▾) of the isolated thromboplastin peptide (1 μM), at 37° C. Aliquots ([…]) were removed at the start (time zero) and at various intervals up to 180 min and assayed by means of the one-stage prothrombin time assay. The data presented are representative of 5 independent experiments.

[5] = biological target: recombinant thromboplastin (UniProt P13726 33-295, limits assumed); experiment: cell-based or functional assay
[6] = test system: T4, KRAD-14 peptide (recombinant, released from the biotinylated fusion protein with chymotrypsin)
T4 sequence: KAQSKKNKHRHSTT

thromboplastin [7] = biological target: T1, thromboplastin; experiment: Inhibition of thromboplastin in the presence of plasma; assay type: biochemical
Procedure: […] The samples were then assayed by addition of 100 μl of […] CaCl2 solution and measurement on the coagulometer. The percentage inhibition in each case calculated against a similarly treated sample, containing thromboplastin only.

T1 sequence (P13726 33-295): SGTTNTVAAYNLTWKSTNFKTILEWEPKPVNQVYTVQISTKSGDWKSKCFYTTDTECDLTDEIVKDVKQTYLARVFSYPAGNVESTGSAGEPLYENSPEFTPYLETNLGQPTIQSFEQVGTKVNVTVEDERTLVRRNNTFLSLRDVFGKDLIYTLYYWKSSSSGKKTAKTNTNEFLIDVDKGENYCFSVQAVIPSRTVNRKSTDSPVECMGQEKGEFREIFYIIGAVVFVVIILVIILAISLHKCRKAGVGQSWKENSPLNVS
T2 sequence (P13726 33-295): as above
T3 sequence (P13726 33-295): as above

## TRLTRKRGLKLATAL [APO B-100 control peptide (3358-3372), apolipoprotein B-100 control peptide purchased from Sigma, reference compound]
Thromboplastin [1]; listed as cationic peptide from apolipoprotein B-100 (fragment 3358-3372)
  effect on thromboplastin (in words): had no effect
Thromboplastin [1]; listed as control 15 mer apolipoprotein B-100 (fragment 3358-3372) peptide
  effect on thromboplastin (in words): neither the control 15 mer apolipoprotein B-100 (fragment 3358-3372) peptide nor the chloramphenicol acetyltransferase control protein had any detectable effect
[2]
  Procoagulant Activity: (3358-3372) (4.68 U/ml)

## Reconstituted apolipoprotein B-100: apolipoprotein B-100 isolated from LDL by delipidation and gel filtration, reconstituted in phosphatidylcholine
Thromboplastin [1]; 90 min incubation
  inhibition of the procoagulant activity of thromboplastin: > 95%
[2]; against distilled water control
  % Inhibition: 62%
[2]
  Procoagulant Activity: (1.79 U/ml)

## DLTDEIVKD [thromboplastin-derived peptide (58-66), recombinant peptide of thromboplastin residues 58-66]
Thromboplastin [3]
  effect on the procoagulant activity of thromboplastin (in words): enhanced the procoagulant activity of thromboplastin
  Procoagulant Activity of thromboplastin: Peptide 56-66 (7.45 U/ml)
Thromboplastin [3]; peptide alone
  endogenous procoagulant activity of the peptide: no endogenous procoagulant activity
[4]
  effect on the rate of inhibition of thromboplastin activity by reconstituted apo B-100: accelerated the rate of inhibition of thromboplastin activity

## VQGEESDNK [Control peptide]
Thromboplastin [3]
  effect on the procoagulant activity of thromboplastin (in words): did not have any significant effect
  Procoagulant Activity of thromboplastin: Control peptide (6.75 U/ml)

## reconstituted apolipoprotein B-100 (from UniProt P04114 28-4563)
[5]
  % Inhibition of thromboplastin delipidated and reconstituted in phosphatidylcholine; 500 nM, 30 min, 37 C: 62%
  Procoagulant Activity left of thromboplastin reconstituted in phosphatidylcholine; 500 nM, 30 min, 37 C: 1.79 U/ml
  inhibition of procoagulant activity of thromboplastin, time course (FIG. 1), 70 min: > 90%

## thrombin
[6]
  clotting ability and amidolytic proteolytic activity of thrombin (100 nM) after incubation with 500 nM peptide: The KRAD-14 peptide (500 nM) did not affect either the clotting ability or the amidolytic proteolytic activity of thrombin (100 nM)

B1: KRAD-98 peptide (recombinant, released with enterokinase) (peptide)
peptide: LKDESLWEKTGLKEFLKTTKQSFDLSVKAQYKKNKHRHSITNPLAVLCEFISQSIKSFDRHFEKNRNNALDFVTKSYNETKIKFDKYKAEKSHDELPR
[5]
  % Inhibition of thromboplastin delipidated and reconstituted in phosphatidylcholine; 500 nM, 30 min, 37 C: 85%
  Procoagulant Activity left of thromboplastin reconstituted in phosphatidylcholine; 500 nM, 30 min, 37 C: 0.71 U/ml
Thromboplastin [1]; 45 min incubation
  inhibition of the procoagulant activity of thromboplastin: 95%
Thromboplastin [7]; plasma included during the incubation prior to assaying, peptide 500 nM
  influence of plasma on the ability to inhibit thromboplastin activity (in words): did not significantly affect
Thromboplastin [7]; plasma present, 37° C., 40 min incubation
  inhibition of thromboplastin activity in the presence of plasma: 95%
[2]
  Procoagulant Activity: (0.71 U/ml)

## KAQSKKNKHRHSTT [KRAD-14 peptide (recombinant, released from the biotinylated fusion protein with chymotrypsin)]
[5]
  % Inhibition of thromboplastin delipidated and reconstituted in phosphatidylcholine; 500 nM, 30 min, 37 C: 99%
  Procoagulant Activity left of thromboplastin reconstituted in phosphatidylcholine; 500 nM, 30 min, 37 C: 0.05 U/ml

## TRLTRKRGLKLATAL [apolipoprotein B-100 control peptide (fragment 3358-3372)]
[5]
  % Inhibition of thromboplastin delipidated and reconstituted in phosphatidylcholine; 500 nM, 30 min, 37 C: 0.4%
  Procoagulant Activity left of thromboplastin reconstituted in phosphatidylcholine; 500 nM, 30 min, 37 C: 4.68 U/ml
